# Laboratory results taken from IntAct's records for PubMed 16499958.
# B1: Rab5 GDP/GTP exchange factor (Homo sapiens), Q9UJ41 (parent)
# chain: MSLKSERRGIHVDQSDLLCKKGCGYYGNPAWQGFCSKCWREEYHKARQKQIQEDWELAERLQREEEEAFASSQSSQGAQSLTFSKFEEKKTNEKTRKVTTVKKFFSASSRVGSKKEIQEAKAPSPSINRQTSIETDRVSKEFIEFLKTFHKTGQEIYKQTKLFLEGMHYKRDLSIEEQSECAQDFYHNVAERMQTRGKVPPERVEKIMDQIEKYIMTRLYKYVFCPETTDDEKKDLAIQKRIRALRWVTPQMLCVPVNEDIPEVSDMVVKAITDIIEMDSKRVPRDKLACITKCSKHIFNAIKITKNEPASADDFLPTLIYIVLKGNPPRLQSNIQYITRFCNPSRLMTGEDGYYFTNLCCAVAFIEKLDAQSLNLSQEDFDRYMSGQTSPRKQEAESWSPDACLGVKQMYKNLDLLSQLNERQERIMNEAKKLEKDLIDWTDGIAREVQDIVEKYPLEIKPPNQPLAAIDSENVENDKLPPPLQPQVYAG
# B2: Unconventional myosin-VI (Homo sapiens), Q9UM54 (parent)
# chain: MEDGKPVWAPHPTDGFQMGNIVDIGPDSLTIEPLNQKGKTFLALINQVFPAEEDSKKDVEDNCSLMYLNEATLLHNIKVRYSKDRIYTYVANILIAVNPYFDIPKIYSSEAIKSYQGKSLGTRPPHVFAIADKAFRDMKVLKMSQSIIVSGESGAGKTENTKFVLRYLTESYGTGQDIDDRIVEANPLLEAFGNAKTVRNNNSSRFGKFVEIHFNEKSSVVGGFVSHYLLEKSRICVQGKEERNYHIFYRLCAGASEDIREKLHLSSPDNFRYLNRGCTRYFANKETDKQILQNRKSPEYLKAGSMKDPLLDDHGDFIRMCTAMKKIGLDDEEKLDLFRVVAGVLHLGNIDFEEAGSTSGGCNLKNKSAQSLEYCAELLGLDQDDLRVSLTTRVMLTTAGGTKGTVIKVPLKVEQANNARDALAKTVYSHLFDHVVNRVNQCFPFETSSYFIGVLDIAGFEYFEHNSFEQFCINYCNEKLQQFFNERILKEEQELYQKEGLGVNEVHYVDNQDCIDLIEAKLVGILDILDEENRLPQPSDQHFTSAVHQKHKDHFRLTIPRKSKLAVHRNIRDDEGFIIRHFAGAVCYETTQFVEKNNDALHMSLESLICESRDKFIRELFESSTNNNKDTKQKAGKLSFISVGNKFKTQLNLLLDKLRSTGASFIRCIKPNLKMTSHHFEGAQILSQLQCSGMVSVLDLMQGGYPSRASFHELYNMYKKYMPDKLARLDPRLFCKALFKALGLNENDYKFGLTKVFFRPGKFAEFDQIMKSDPDHLAELVKRVNHWLTCSRWKKVQWCSLSVIKLKNKIKYRAEACIKMQKTIRMWLCKRRHKPRIDGLVKVGTLKKRLDKFNEVVSVLKDGKPEMNKQIKNLEISIDTLMAKIKSTMMTQEQIQKEYDALVKSSEELLSALQKKKQQEEEAERLRRIQEEMEKERKRREEDEKRRRKEEEERRMKLEMEAKRKQEEEERKKREDDEKRIQAEVEAQLARQKEEESQQQAVLEQERRDRELALRIAQSEAELISDEAQADLALRRSLDSYPVSKNDGTRPKMTPEQMAKEMSEFLSRGPAVLATKAAAGTKKYDLSKWKYAELRDTINTSCDIELLAACREEFHRRLKVYHAWKSKNKKRNTETEQRAPKSVTDYDFAPFLNNSPQQNPAAQIPARQREIEMNRQQRFFRIPFIRPADQYKDPQSKKKGWWYAHFDGPWIARQMELHPDKPPILLVAGKDDMEMCELNLEETGLTRKRGAEILPRQFEEIWERCGGIQYLQNAIESRQARPTYATAMLQSLLK
# Variants of: B1
# Settings: with ubb_human UBB
row,Variant,effect of a mutation on the interaction
1,Y25F,decreasing interaction

# Variants of: B1
# Settings: with ubb_human UBB
# Remark: another data set of the same source
row,Variant,effect of a mutation on the interaction
1,A58G,decreasing interaction

# Variants of: B2
# Settings: with ubb_human UBB
row,Variant,effect of a mutation on the interaction
1,A1013G,decreasing interaction
